Source: patent US20090117096A1 (Scripps Research, published 2009)

What was measured:
[1] = target: T1, integrin α5β1 (human, UniProt P08648 42-1049; P05556 21-798); experiment: flow cytometry on human tumor cell panel (FIG. 1)
T1 construct: whole, on cells
Protocol: Flow cytometry. scFv binding to human tumor cells was analyzed by flow cytometry, initially with cloned scFv phage and then with purified scFv protein. […] Binding/washing buffer was TBS with or without divalent cations (1 mM Ca²⁺, 1 mM Mg²⁺, 0.2 mM Mn²⁺). […] All samples were counter stained with propidium iodide (PI) and analyzed on a Becton-Dickinson FACScan, with live gate set to exclude PI positive cells.

[2] = target: T2, integrin αvβ5 (human, UniProt P06756 31-1048; P18084 24-799); experiment: flow cytometry on human tumor cell panel (summary statement)
T2 construct: whole, on cells

[3] = target: T3, integrin αvβ1 (human, UniProt P06756 31-1048; P05556 21-798); experiment: as above
T3 construct: whole, on cells

Measured: binding result

T1 sequence (P08648 42-1049, chain 1 of 2): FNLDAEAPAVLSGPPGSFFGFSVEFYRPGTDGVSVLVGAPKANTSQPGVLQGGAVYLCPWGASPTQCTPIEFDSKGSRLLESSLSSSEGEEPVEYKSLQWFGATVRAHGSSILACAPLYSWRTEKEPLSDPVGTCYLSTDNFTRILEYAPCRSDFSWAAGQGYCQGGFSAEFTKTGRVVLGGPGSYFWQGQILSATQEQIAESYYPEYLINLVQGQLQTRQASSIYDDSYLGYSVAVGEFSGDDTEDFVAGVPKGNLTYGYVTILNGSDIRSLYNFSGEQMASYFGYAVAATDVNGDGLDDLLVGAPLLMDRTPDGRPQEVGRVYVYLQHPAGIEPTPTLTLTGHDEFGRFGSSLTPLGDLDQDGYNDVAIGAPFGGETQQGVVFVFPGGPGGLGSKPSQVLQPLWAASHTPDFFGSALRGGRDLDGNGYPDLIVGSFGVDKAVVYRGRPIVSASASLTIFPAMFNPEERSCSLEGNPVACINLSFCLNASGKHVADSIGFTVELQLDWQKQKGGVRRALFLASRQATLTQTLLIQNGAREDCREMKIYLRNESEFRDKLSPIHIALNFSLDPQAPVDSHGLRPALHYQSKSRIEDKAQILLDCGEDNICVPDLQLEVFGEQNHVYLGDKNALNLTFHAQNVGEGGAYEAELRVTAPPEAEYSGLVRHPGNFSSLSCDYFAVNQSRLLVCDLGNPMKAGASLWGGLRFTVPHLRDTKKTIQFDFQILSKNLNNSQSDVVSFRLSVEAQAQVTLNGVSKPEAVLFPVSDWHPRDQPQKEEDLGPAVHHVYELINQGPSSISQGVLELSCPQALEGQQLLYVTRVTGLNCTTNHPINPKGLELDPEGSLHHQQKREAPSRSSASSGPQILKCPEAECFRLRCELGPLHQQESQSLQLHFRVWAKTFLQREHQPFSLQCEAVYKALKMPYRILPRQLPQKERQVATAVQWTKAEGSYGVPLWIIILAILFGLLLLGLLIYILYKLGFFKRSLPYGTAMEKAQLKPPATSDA
T1 sequence (P05556 21-798, chain 2 of 2): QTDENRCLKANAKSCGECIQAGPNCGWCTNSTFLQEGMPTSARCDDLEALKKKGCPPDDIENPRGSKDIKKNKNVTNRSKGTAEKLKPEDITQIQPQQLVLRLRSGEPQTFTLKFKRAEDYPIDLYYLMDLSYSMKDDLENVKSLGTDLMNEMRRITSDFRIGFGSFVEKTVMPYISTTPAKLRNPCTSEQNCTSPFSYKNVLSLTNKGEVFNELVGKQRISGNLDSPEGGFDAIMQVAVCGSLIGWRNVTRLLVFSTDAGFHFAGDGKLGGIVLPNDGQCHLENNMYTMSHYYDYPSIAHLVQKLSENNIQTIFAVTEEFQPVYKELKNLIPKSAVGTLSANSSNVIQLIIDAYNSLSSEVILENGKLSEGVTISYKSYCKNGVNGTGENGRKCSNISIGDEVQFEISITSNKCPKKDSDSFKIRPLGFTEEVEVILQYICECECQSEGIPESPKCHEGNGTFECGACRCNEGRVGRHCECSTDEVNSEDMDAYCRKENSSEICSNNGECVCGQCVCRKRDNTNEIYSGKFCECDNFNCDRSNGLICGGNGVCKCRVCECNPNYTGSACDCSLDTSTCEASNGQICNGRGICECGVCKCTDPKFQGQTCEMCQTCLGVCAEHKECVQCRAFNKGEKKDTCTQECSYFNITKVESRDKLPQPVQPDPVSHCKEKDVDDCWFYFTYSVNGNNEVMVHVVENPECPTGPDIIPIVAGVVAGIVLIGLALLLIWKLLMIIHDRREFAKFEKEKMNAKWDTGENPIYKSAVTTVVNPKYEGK
T3 sequence (P06756 31-1048, chain 1 of 2): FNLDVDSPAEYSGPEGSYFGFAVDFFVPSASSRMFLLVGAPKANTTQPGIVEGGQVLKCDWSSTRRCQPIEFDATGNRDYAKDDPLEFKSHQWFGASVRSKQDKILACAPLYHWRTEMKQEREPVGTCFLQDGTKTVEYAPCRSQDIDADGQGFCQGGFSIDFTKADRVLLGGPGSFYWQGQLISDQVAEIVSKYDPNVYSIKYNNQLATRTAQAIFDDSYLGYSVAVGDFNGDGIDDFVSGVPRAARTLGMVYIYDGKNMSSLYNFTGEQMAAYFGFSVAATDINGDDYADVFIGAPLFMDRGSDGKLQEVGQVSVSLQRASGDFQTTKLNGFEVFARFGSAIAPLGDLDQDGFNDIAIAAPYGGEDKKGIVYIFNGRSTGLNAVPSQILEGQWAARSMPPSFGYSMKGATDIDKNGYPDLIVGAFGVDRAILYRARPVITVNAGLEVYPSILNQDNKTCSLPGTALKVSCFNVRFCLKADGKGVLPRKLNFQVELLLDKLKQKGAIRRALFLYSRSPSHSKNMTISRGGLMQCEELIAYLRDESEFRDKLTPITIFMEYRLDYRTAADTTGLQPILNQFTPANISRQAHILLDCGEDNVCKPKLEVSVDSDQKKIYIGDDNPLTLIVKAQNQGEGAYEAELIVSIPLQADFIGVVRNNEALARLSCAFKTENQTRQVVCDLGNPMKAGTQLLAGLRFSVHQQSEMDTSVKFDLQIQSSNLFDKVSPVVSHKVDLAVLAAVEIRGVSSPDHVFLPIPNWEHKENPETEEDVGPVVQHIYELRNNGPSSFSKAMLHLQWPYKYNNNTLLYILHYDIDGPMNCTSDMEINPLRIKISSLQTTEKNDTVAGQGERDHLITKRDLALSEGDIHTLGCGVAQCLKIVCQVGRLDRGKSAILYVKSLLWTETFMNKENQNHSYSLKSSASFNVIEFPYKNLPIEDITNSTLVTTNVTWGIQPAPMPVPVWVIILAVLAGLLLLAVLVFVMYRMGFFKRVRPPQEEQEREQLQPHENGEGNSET
T3 sequence (P05556 21-798, chain 2 of 2): as the sequence (P05556 21-798, chain 2 of 2) above
T2 sequence (P06756 31-1048, chain 1 of 2): as the sequence (P06756 31-1048, chain 1 of 2) above
T2 sequence (P18084 24-799, chain 2 of 2): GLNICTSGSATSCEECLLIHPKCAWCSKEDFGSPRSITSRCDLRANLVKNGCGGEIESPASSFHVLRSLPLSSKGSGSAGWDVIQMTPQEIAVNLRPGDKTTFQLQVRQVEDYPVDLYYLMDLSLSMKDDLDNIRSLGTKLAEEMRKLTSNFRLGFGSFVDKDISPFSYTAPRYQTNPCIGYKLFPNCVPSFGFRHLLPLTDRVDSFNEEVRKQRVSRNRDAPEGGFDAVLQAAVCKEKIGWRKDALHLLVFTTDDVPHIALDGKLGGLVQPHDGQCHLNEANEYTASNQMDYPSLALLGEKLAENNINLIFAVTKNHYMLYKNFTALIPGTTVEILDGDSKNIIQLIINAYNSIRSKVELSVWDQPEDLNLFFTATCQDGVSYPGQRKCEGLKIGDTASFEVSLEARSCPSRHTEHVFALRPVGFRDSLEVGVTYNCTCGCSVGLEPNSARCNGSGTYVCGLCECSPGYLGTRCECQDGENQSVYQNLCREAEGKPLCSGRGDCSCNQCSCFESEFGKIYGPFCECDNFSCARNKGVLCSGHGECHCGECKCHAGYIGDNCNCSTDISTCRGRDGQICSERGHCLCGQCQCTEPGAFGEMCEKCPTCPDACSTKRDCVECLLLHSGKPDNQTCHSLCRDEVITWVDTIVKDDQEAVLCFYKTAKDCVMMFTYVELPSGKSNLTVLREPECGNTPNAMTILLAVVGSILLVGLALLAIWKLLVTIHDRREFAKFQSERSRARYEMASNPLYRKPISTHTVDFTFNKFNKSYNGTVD

B1: scFv antibody Bc-12 (scFv)
scFv: MAQVQLVQSGAEVKKPGASVKVSCKASGYTFSNYGITWVRQAPGQGLEWMGWINNGNTHYAQKFQGRVTMTTDTSTSTAYMELRSLRSDDTAVYYCARDPRGDDEPYWGQGTLVTVSSGGGGSGGGGSGGGGSEIVLTQSPLSLPVTLGQPASISCRSSQNLVYSDGNTYLSWFQQRPGQSPRRLIYKVSNRDSGVPDRFSGSGSGTDFTLKISRVEAEDIGVYYCMQGTHWPPRTFGQGTKVEIKRGLGGLVDYKDDDDK
notes: also called scFv Bc-12
no binding: all assays above
